Laboratory results taken from the DeepSol protein solubility set.

Experiment: soluble on expression in E. coli; label from the status in PepcDB or PDB records

Sequence | soluble on expression in E. coli
MTSVLDPDRALEDEAKDKFGFVGIAKQLAPPIIEAAKGEGMVIGLEGRWGSGKTSLLNFLRAELQASKKSGIHTITIAPWLNGDTSSLVLSLLEPMAAVLKQKEDELAESYGEGQSATKERVAEVGRLLRAYGPKTARRIASLANVAGYVLPGAQAIGGALAASASAADEIFDVGPTPSELKQELAVKIQELNVGFIVILDDLDRLEPEQAVEVVRLVRSVADFPKVVYLMCYDREVLSEALKTGLKVSDGDLFLQKIVQLTFNIPLPEPFDLRTQFRNEAKAIYFEATGVDLDGAILHDLTYAVDREGMGLSTPREVKLALNSIRFVFSQVKDDVYFPDLCRLHLIKTTNYKLYKWLEIYLSVRSVLVTGDATVSEDEKTKMGEELKMLLPASGPGSVHSIWSLARFIPGVVDTEKVSERVFNAINSSAISEAVRLKRLGSPLHYRFYFALTGPKTVMPDEDFNAILELARNDIDQLESRLAAETMKRRDSGRTWFEHVLDRLDDDCISSLDESQLSGILHALSGMMDIAMKEDGEVRSFALSLDGIANIVAKRCLVRLRELNPEKQANTVRSMAQDGKAINWLVGKFFRSQLFNHGKVGERAERPEQWEISEDLLDDIIEILRKRLSEQDIKNLIPNLPNVSAYLYGWMNLTDDDQAKNWVQEYSESDEGFLDILNHLRGWAMSDKVYYPLSEKTVSSFLDWNEVKTRLDGMQLEHHHHHH | not soluble
MDIRLEDEQIKVGDTLLPGVYEGMEVTGDVRSDEEELQSGKRVVHYSYNPTTIRLNLKLLNDADGTPEEKLATIQKVFRPPSQTKPPTYKLVSSHAKARGIGQVMFIRFRSQDTNASDIITVSLEFQETESTTVSVQKVKANTGSGQQYTVKKGDTLWALAKKFNTTVEAIAKANNIANVNLIYVGQKLTIPAASGNASSVASSSAAVDDAEAPKVR | not soluble
MDNTNTGLKLFVLDTNILMHDPTAIYHFDEHDIYLPMVVLEELDSHKTGTSELARNVRQTNRMLVELMSNATHDQIVSGLPIPSYINSSNKKCSGRLFFQTDEFDQVVPSTLPGHKVDNTILATALGLQKKYYGKRQVIIISKDINLRIKAGILGIHAEDYYNDQVLDDVNLLHRGLHILDNNFWDSHAKDMGSWQESGKTFYKVSGPLVSQWNPNDCLSTEDDQFQALVKKIDGPNAVVQLIRDYTQPKHSVWGITARNREQNFSLNLLLDPDIDFVSLQGSAGTGKTLLTIAAGLTQVMDQNRYSEILMTRVTIPVGEDIGFLPGTEEEKMTPWMGALMDNLEVLHSSQVGGSFGRGATQDLLQNKIKIRSLNFMRGRTFLNRYIIIDEAQNLTSKQIKTLVTRAGPGSKIICLGDIKQIDTPYLTETTSGLTFAVDRFKSWEHSAHMTLTRGERSRLAFYAAEHL | not soluble
MTSTRHHRGARRALRHLTTTTAHARRAFSPADLRQLEAAVREGERRHRGEVRIVIEASLPVRDAWAGVTPRQRARTLFGLLEVWNTHEHVGVLLYLNLADHAVEILADRGIAARVEPHAWRAICETITHGFAQGVAIGPVLEALGQIHAVLAAHFPSDGAPRANELADKPLVLLEHHHHHH | soluble
MSLDLPPGVVALVNGTRITQEQLDRAIAQSGAQANPQVAQALKQQLIARELFRQQAAKNPAYDKLPAVKQAMQEAHDAVITQAWLKDNIKPAPITEEQVKARYDAIVASLGDKEYKARVIQLGDDVTAAQVLAQLKQGGDFAKLAQQYSTAPNKVRGGDMDWVSFKVPVEEGKTQNLPLPLAREIAALGIGAASTAPVEVGSQRYIVKVEAARPTQVPGYDTVRPAIRQALETAELERVTVQVVGGLLKAAKIVQEGHHHHHH | soluble
MSPHPQPAPEPVIQYIASCKLPTPWGEFVMHGFEEESGQEHVALTLGEVGDGLPVLARLHSECLTGDALFSLRCDCGFQLEAAMEAISKAGRGALLYLRQEGRGIGLINKIRAYKLQDGGADTVEANERLGFPADMRDFRIARHMLAHLGIGSVKVMTNNPRKLATLEAAGIAVVERVPLQVGRNPYNDRYLDTKAAKLGHMLLKLEHHHHHH | soluble
MASKKREVQLQSVVNSQNLWDEMLLNKGLTVIDVYQAWCGPCKAVQSLFRKLKNELNEDEILHFVVAEADNIVTLQPFRDKCEPVFLFSLNGKIIAKIQGANAPLINRKVITLIDEERKIVAGEMDRPQYVEIPLVDAIDEEYGEVQYESAAEVYNMAIIKPDAVLMRKNIEVREKIAKEGFVIEIQENLILPEEVVREFYTHIADQPDFEEFVVSMTNGLSCVLIVSQEDSEVIQEETLPQTDTEEEPGVLEEPHVRFAPVMIKKKRDSLQEYMDRQYMSDYCDVEDDAVKVFKLIDILFPDFKTMKSTNVQTTLALLHPDICEEEKDDVLNVIHNEGFTILMQRQIVLSEEEARTVCKIHENEEYFDNLIGHMTSNHSYVLALRRENGVEYWKTLIGPKTIEEAYASHPQSLCVQFASGNFPTNQFYGSSSKAAAEKEIAHFFPPQSTLALIKPHVTHKERIHRSSRR | not soluble
MGSDKIHHHHHHMAHAHQKSDPHTVDFQVDPVVLELGQRFVDAGYELSLVGGPVRDLFLGRRSPDLDFTTDATPDQTLALIRKWADNFWEIGKAFGTIGMRKSGFQIEITTYRAEAYDPESRKPMVAFGSSLTDDLLRRDFTINAMALRLPSMELIDPFGGVRDLHASVLATPGAPETSFSDDPLRMMRAARFAAQLGVAVRGDVKHAMSQMAERISIISAERVREELVKLICGAHPRVGIDLLVDTGLAEFVLPEVSALRLEADEHHRHKDVYQHSLQVLEQAASLETDSDGAVPGPDFVLRFAALMHDVGKPATRRFEPGGAVSFRHHDMVGSKLTKKRMKALRFDNDTIKAVARLVELHMRFYGYGEAGWSDSAVRRYVTDAGPLLERLHRLTRSDVTTRNQRKADRLSFAYDDLEARIAALREQESLEAVRPDLDGGQIMALLGLKPGPVVGKAYKFLLEQRMEHGPLDPVVAEARLREWWADQPEAAEHQPAAGVELSTTEES | not soluble
MSRFQTLTPASLSREAFIEAFADIYEHSPWVAEKAYDLGIDDSLNDIEGLHQRMADILLSASREAQLALINAHPDLAGKAAIRGELTASSTSEQAGAGIHECSAEEFARFTELNDAYKARFGFPFIKAVKGSNRHQILAAFEERIQHSADEEFATALAEINKIALFRLQQL | not soluble
MSLKYEYCPICGKKLEKKYSYDEGDVPYCQKDKIMFFDVPKPCVLVAVIKGQEILLLKQEYTFKDSKILVSGYVANGETVEETVVREVKEEVGIIVEKPEYLGSYYFKPKELIMLTFMVRYVSGEITKSQEVDEAYWVNMRDVLQEMNEDKVGKDVVKKVFKRIGYNEEKYLHKEGHHHHHH | not soluble
MPSFDIVSEITLHEVRNAVENANRVLSTRYDFRGVEAVIELNEKNETIKITTESDFQLEQLIEILIGSCIKRGIEHSSLDIPAESEHHGKLYSKEIKLKQGIETEMAKKITKLVKDSKIKVQTQIQGEQVRVTGKSRDDLQAVIQLVKSAELGQPFQFNNFRD | soluble
MARKKQFDYFGELNQLATNAYEAAKVLQEIVDNYSLENLVKKSEAIHQLEKENDEIVRKILNELYISFITPIDREDIVDITDHLDNIIDSINSLSYLLDHLVVEEMIAPALELTAYIVKATEGVKSATKEFAKFKNSKTLVSLIDEVNTIESQGDKLYSSAMKDLMTNEKDLLKVIKWKDVYDQLERTINDCESAVNIIVGIVIKNTLEHHHHHH | soluble
MKKLPNIHPGEVLMEEFLIPMEITSYRLAKEIGIPQTRVSEITKGRRRITADTALRLSKYFGNSPKFWLGLQDDYDIEEESQLIAEELKAIKKVVV | not soluble
MTDERYGYIHASMLPTQCLCTKLRRAARSVSRFYDEALADTGLKVAQFSLLRHLRRLDRPSISELAEAMGLDRSTLGRNLRVLEGDGLLRLTGGEDQRNRLVELTPAGLDALERGTPAWEDAQRRLAGRLGEERSGALAALLAELERLD | not soluble
MSMEPTLQSILDQRSLRWIFVGGKGGVGKTTTSCSLAIQLAKVRRSVLLLSTDPAHNLSDAFSQKFGKEARLVEGFDNLYAMEIDPNGSMQDLLAGQTGDGDAGMGGVGVMQDLAYAIPGIDEAMSFAEVLKQVNSLSYETIVFDTAPTGHTLRFLQFPTVLEKALAKVSQLSGQYGSLLNGILGGSGTLPNGQTLSDVMEKLDSLRVTISEVNAQFKDERLTTFVCVCIPEFLSLYETERMIQELANYGIDTHCIVVNQLLFPKPGSDCEQCTARRRMQKKYLDQIEELYDEEFNVVKMPLLVEEVRGKERLEKFSEMLIKPFVPPEHHHHHH | soluble
MLMVVPLSEMGPGDKGIVVNILGGHNARQKLVSMGLTPGATIQVLESHPMGPIIISVGGVRFAIGKGLAGRVMVRKL | soluble
MNKGQRHIKIREIITSNEIETQDELVDMLKQDGYKVTQATVSRDIKELHLVKVPTNNGSYKYSLPADQRFNPLSKLKRALMDAFVKIDSASHMIVLKTMPGNAQAIGALMDNLDWDEMMGTICGDDTILIICRTPEDTEGVKNRLLELL | soluble
MSLKYVKSLFEIHPDIATKFRIKNQYLKTGYMNVLLCLIETVRRSPKEISKNDLADAYVALESLTDHGFKLDWLKKKLDQVTQKKEKEAAGETRMHEIGEELKDLKLKCSDLEAQLDKVKWKCSDLEAQLVKEKADVLAAIAPLGSSDDGVFDDFFEKQYTGFVRKYQIGASQTWFLLLNSRPKIVDFWSRANSKALLKARFLKLLAYAMCQNQKAWMSTGFMFYLPKRLLAFPKGNDTKSDHLSLYLDVAESESLPCGWRRHAQFSFTIVNHIPEKCSQRKDGEGSSFYEEIQLGHQEFLLFAIAENILASVRDARLQEGHHHHHH | not soluble
MGSDKIHHHHHHMSAPQAMKVLVLCGPESSGKSWLSGVIQAHFGGLVVGEYVRHFIDQQCRDTCYADIPAIARGQLAWEDRAREQAPPLLILDTHLLSNMLWSHALFGDCPTWLEEALLARRYDLHLLLSPQGVDWIADGQRCQPDLSDRQRFFDDSQAWLRRHNQPHQILDGNWPQRQLLALQSVAKLLNSDAPSCPTEC | not soluble
MSDLHTKLGSGMNKLQEGIEQGKMKLQVAQEIAQLKKGMQVQMQKKAEVLLEVGQQVYVQLRGSGVNEASLKEMIAPVQEFDVAIYQARKRIVELQKQQGEKATCECGGPLSINDKFCGSCGKPNPMLTVENEGETVNCISCNEHIDKNSTYCPVCGIKQSGE | not soluble
MDHENLMKYLEEFRSIRFQPDFQKVDAERNVRYCEITDFPISNISFELLETGVSQQWRNCDQNLFNEYLKTYKNGGYSQFEDLLFKIWGYSEEKERFDLPALKSFYRKMSEIVGEDEVLEKLARLVRITKSACEVLPEKIYRLVGDIESATFSHIQCASLIAWMFFSDTPRLSFIIILQKTTCVAVEKLKFLFTYFDKMSIDPPIGAVSFRKMRITHKQYLENWKLRETNLLPDVQVFDKMSIEETALCTQIDFANKRLGGGVLKGGAVQEEIRFMMCPEMMVAILLNDVTQDLEAISIVGAYVFSSYTGYSNTLKWAKITPKHSAQNNNSFRDQFGRLQTETVAIDAVRNAGTPLECLLNQLTTEKLTREVRKAAIGFLSAGDGFSKIPVVSGWWGCGAFRGNKPLKFLIQVIACGISDRPLQFCTFGDTELAKKCEEMMTLFRNNNVRTGQLFLIINSIGPPLNYSEQYVFDAIRAKINSTKA | not soluble
GSHMDADGKLLTEGGENENLRKNASKKETSLFQGFKSYLPIAELAIENTERLNY | soluble
